Reference: US9090686B2, “Antibodies for the treatment of HIV” (Pierre Fabre Medicament, priority 2009, dated 2015)
Changes are numbered by the printed parent chain.

B1: 515H7: murine anti-CXCR4 monoclonal antibody; light chain variable domain SEQ ID No. 7, heavy chain variable domain SEQ ID No. 8 (antibody, listed as Mus musculus, V domains shown)
VH: EVNLVESGGGLVQPGGSLRLSCATSGFTFTDNYMSWVRQPPGKALEWLGFIRNKANGYTTDYSASVRGRFTISRDNSQSILYLQMNALRAEDSATYYCARDVGSNYFDYWGQGTTLTVSS
VL: DIVMSQSPSSLAVSAGEKVTMSCKSSQSLFNSRTRKNYLAWYQQKPGQSPKLLIYWASARDSGVPARFTGSGSETYFTLTISRVQAEDLAVYYCMQSFNLRTFGGGTKLEIK
B2: c515H7: chimeric antibody 515H7: murine variable domains fused to human Ckappa and IgG1/IgG2/IgG4 constant domains; isotype tested not stated (antibody, V domains shown)
VH: B1 VH
VL: B1 VL
B3: 301aE5: murine anti-CXCR4 monoclonal antibody; light chain variable domain SEQ ID No. 34, heavy chain variable domain SEQ ID No. 35 (antibody, listed as Mus musculus, V domains shown)
VH: QVQLKESGPGLVAPSQSLSITCTVSGFSLTDYGVYWVRQPPGKGLEWLGMIWGDGTTDYNSALKSRLSISKDNSKSQVFLKMNTLQTDDTARYYCARGRQFGFDYWGQGTTLTVSS
VL: B1 VL with S22R, Y55F, A59I, D61E, A66D, E74G, Y76D, R83S, M95K, F98Y

How the values were obtained:
[1] = tested on: HIV-1 X4 primary isolate KON; assay: Single cycle neutralization assay in human PBMC, isolate KON; type: cell-based; settings: IC for 80% inhibition
human CXCR4 = human CXCR4 (Homo sapiens, UniProt P61073); assay: SDF-1-induced calcium release in CHO-CXCR4 cells; type: cell-based; set-up: expressed in transfected cells; settings: Mab 133 nM, SDF-1 100 nM
Sequence of human CXCR4 (P61073 whole entry): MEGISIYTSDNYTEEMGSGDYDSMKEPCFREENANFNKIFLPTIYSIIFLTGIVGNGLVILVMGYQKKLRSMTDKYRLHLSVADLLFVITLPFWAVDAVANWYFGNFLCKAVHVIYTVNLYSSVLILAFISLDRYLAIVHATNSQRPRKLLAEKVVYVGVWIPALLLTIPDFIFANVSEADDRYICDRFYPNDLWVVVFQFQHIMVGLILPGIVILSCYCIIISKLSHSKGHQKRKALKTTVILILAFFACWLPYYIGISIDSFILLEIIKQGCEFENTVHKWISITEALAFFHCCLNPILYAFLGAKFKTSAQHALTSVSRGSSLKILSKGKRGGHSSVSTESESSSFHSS
From the text: This functional assay was designed to monitor CXCR4 receptor signaling via stimulation of the phospholipase C pathway, inducing calcium liberation from intracellular stores from the endoplasmic reticulum.
CHO-K1 cells, stably and constitutively expressing human CXCR4 receptor were obtained upon transfection of naïve CHO-K1 cells (ATCC CCL-61) with a mammalian expression vector carrying the whole coding sequence of human CXCR4 receptor (RefSeq NM_003467). Cells were propagated in complete culture medium [DMEM-Ham's F12 supplemented with 5% fetal calf serum (FCS) and 500 μg/ml of geneticin]. Cells were plated in black 96MW plates at a density of 100,000 cells/well in appropriate culture medium. Cells were starved overnight before conducting the experiments. Cells are loaded with the fluorescent calcium dye (Fluo-4 No Wash, Invitrogen US) in loading buffer [HBSS 1×, HEPES 20 mM, Probenicid acid 25 mM] for 30 min. at 37° C. followed by 30 min. at 25° C. Stimulation by SDF-1 was performed by direct injection into each well. For antagonism experiments, 10 μl of Mab solution are added directly into the loading buffer at least 10 min. before SDF-1. Kinetic fluorescence measurements are performed on a multi-mode fluorescence microplate reader Mithras LB940 (Berthold) using the following settings: excitation at 485 nm, emission at 535 nm, excitation energy at 10000 arbitrary units. Fluorescence in each well is recorded during 0.1 second every second and for a time period of 20 sec. prior SDF-1 injection (basal signal). Then 20 μl of SDF-1 are injected and data recording follows for a time period of 2 min. Each experimental condition is performed in duplicate. Values for each well are first corrected by subtracting the basal fluorescence and the fluorescence emitted by a control well without cells. Relative data are expressed as a percentage of the maximal stimulation obtained by SDF-1 (100 nM).

NIH3T3 cells = assay: FACS binding to parent NIH3T3 cells; settings: for binding to parent NIH3T3 cells (in words): FACS; for NIH3T3 (MFI): Mab 10 μg/ml, Mean Fluorescence Intensity by FACS
Description: (§1) NIH3T3 and NIH3T3-hCXCR4 transfected cells were incubated with 10 μg/ml of monoclonal antibodies 515H7 and 301aE5. The cells were then washed with 1% BSA/PBS/0.01% NaN3. Next, Alexa-labeled secondary antibodies were added to the cells and were allowed to incubate at 4° C. for 20 min. The cells were then washed again two times. Following the second wash, FACS analysis was performed.
as §1, with “NIH3T3-hCXCR4” for “NIH3T3 and NIH3T3-hCXCR4”, “a dose range” for “10 μg/ml”, “antibody c515H7 from 0 μg/ml to 10 μg/ml.” for “antibodies 515H7 and 301aE5.”, “1%BSA/PBS/0.01%” for “1% BSA/PBS/0.01%”
NIH3T3, NIH3T3-hCXCR4 transfected were incubated with 0 to 10 μg/mL of humanized Mabs 515H7 (hz515H7 VH1 D76N VL2, hz515H7 VH1 D76N VL2.1, hz515H7 VH1 D76N VL2.2, hz515H7 VH1 D76N VL2.3) for 20 min at 4° C. in the dark in 100 μl Facs buffer. After 3 washing in Facs buffer, cells were incubated with the secondary antibody, a goat anti-human Alexa 488 (dilution 1/500), for 20 minutes at 4° C. in the dark. After 3 washing in Facs buffer, propidium iodide was added in each well and only viable cells were analyzed by Facs. At least 5000 viable cells were assessed to evaluate the mean value of fluorescence intensity for each condition.

[2] = tested on: HIV-1 primary isolate 89.6 (dual X4/R5 virus); assay: Single cycle neutralization assay in human PBMC, isolate 89.6; type: cell-based
Description: This assay is performed in 36 h using primary isolate 89.6 concentrated and diluted accordingly to allow the detection 2% infected CD4 T lymphocytes after 2 days of infection.
(§2) Twenty-five microliters of various dilutions of Mabs 515H7, c515H7 and 301aE5 were incubated for 1 h at 37° C. with 25 μl of virus. Human PBMC (25 μl) at 20×10^6 cells/ml were added to the Mab/virus mixture in a 96-well plate (U-bottom, Costar 3599) and cultured for 36 h in RPMI 1640 10% FCS and 20 U/ml IL-2 (R&D Systems, Minneapolis, Minn.).
(§3) After 2 days of culture, HIV-infected lymphocytes were detected by intracellular staining of viral p24 Ag. Cells were fixed and permeabilized using both Cytofix/Cytoperm and Perm/Wash kits (BD Biosciences) according to the manufacturer and stained with a fluorescent anti-p24 Mab (FITC- or PE-anti-p24, clone KC57; Beckman Coulter/Immunotech, Hialeah, FL) used at a 1/160 dilution in Perm/Wash solution added for 15 min at 4° C. After washing in PBS with 3% FBS, PBMC were diluted in 300 μl of PBS before flow cytometry analysis (LSRII; BD Biosciences) with DIVA software (BD Biosciences). The percentage of p24-positive cells in the different samples was determined by gating 20,000 events on a living cell population identified by forward- and side-scatter parameters. The living cell subsets were analyzed with the live/dead solution kit (Invitrogen). The p24 Ag-positive value was obtained after subtraction of background events in mock-infected cells.
(§4) The percent of neutralization was defined as the reduction of p24-positive cells compared with control infected wells with no Mab. The neutralizing titer was defined as the concentration of antibody (interpolated between successive dilutions performed in triplicate) that allows a 90% decrease in the percentage of infected cells.

[3] = tested on: HIV-1 X4 primary isolate MN; assay: Single cycle neutralization assay in human PBMC, isolate MN; type: cell-based; set-up: MN % inhibition of infected cells 90 / MN % inhibition of infected cells 80: unit not given here; settings: for MN % inhibition of infected cells 80: IC for 80% inhibition; for MN % inhibition of infected cells 80 / MN % inhibition of infected cells 90: human PBMC; for MN % inhibition of infected cells 90: IC for 90% inhibition
Description: This assay is performed in 36 h using primary isolates KON, MN and 92UG024 concentrated and diluted accordingly to allow the detection 2% infected CD4 T lymphocytes after 2 days of infection.
as §2
as §3, with “Fla.)” for “FL)”
as §4

| Molecule | KON % inhibition of infected cells 80 [1] | inhibition of the SDF-1-induced calcium signal (in words) (human CXCR4) | binding to parent NIH3T3 cells (in words) (NIH3T3 cells) | NIH3T3 (MFI) (NIH3T3 cells) | inhibition of HIV-1 89.6 primary isolate replication in PBMC (in words) [2] | inhibition of HIV-1 X4 MN primary isolate replication in PBMC (in words) [3] | MN % inhibition of infected cells 80 [3] | MN % inhibition of infected cells 90 [3] |
| --- | --- | --- | --- | --- | --- | --- | --- | --- |
| B1 | 8 µg/mL | strong inhibition | no recognition | 16 | able to inhibit | able to inhibit | 1.5 | 10 |
| B2 | 10 µg/mL | strong inhibition | No binding was detected |  | able to inhibit | able to inhibit | 1 | 15 |
| B3 | >150 µg/mL | partial inhibition | no recognition | 21 | able to inhibit | able to inhibit | 150 | >150 |
